Laboratory results as given in patent US20160096874A1, “MRG RECEPTOR MODULATORS” (BAYER PHARMA AKTIENGESELLSCHAFT, priority 2013, published 2016).
Positions count from the first letter of the chain named. “Also recorded” adds a separate entry of the source. Peptide text beside a SMILES is read from it.

T1: human MrgX2 (Homo sapiens, UniProt Q96LB1)
T1 construct: The used cell line is overexpressing MrgX2 in CHEM1 by recombinant expression; host or cells: CHEM1 (adherent rat cell line)
T1 sequence (Q96LB1 1-330): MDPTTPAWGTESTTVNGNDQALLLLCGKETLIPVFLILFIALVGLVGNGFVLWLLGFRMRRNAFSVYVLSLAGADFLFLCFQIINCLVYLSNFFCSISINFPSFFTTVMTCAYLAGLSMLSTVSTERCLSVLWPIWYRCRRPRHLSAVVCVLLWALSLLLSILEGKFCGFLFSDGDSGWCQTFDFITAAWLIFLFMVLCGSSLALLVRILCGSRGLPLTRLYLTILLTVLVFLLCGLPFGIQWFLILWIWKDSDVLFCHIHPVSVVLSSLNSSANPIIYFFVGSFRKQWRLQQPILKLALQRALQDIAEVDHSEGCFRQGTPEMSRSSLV

B1: Chemokine (C-X-C motif) ligand 14 (protein, listed as Homo sapiens)
chain: SKCKCSRKGPKIRYSDVKKLEMKPKYPHCEEKMVIITTKSVSRYRGQEHCLHPKLQSTKRFIKWYNAWNEKRRVYEE
notes: small cytokine belonging to the CXC chemokine family
B2: Mouse CXCL14: mouse CXCL14, amino acid sequence in FIG. 19; differs from human by two amino acid residues (protein)
chain: B1 chain with I36V, V41M

Legend:
CHEM1 cells = test: Fluo8 assay, Calcium release in CHEM1 (control) cells without MrgX2 overexpression; assay type: cell-based, rat; settings: control cell line, same experimental conditions, result in words
Procedure: (§1) The Fluo8 assay is a cell based assay format for the determination of intracellular Calcium release. Cell were seeded on microtiter plates and incubated under standard cell culture conditions. After 24 h the medium was removed and the cells were washed with PBS. The cells were incubated with loading buffer (40 ml PBS with 2 mM Calcium +800 μl brilliant black (2%) +732 μl pobenecid (0.5 M) in 1N NaOH +400 μl Pluronic (10%) in water +152 μl Fluo8 (5.7 μg/ml) in water) for 30 minutes. For fluorescence readout and compound testing a FLIPR tetra system was used according to the manufactures protocol (Molecular Devices, Calif. 94089-1136, USA).
The used cell lines CHEM1 and CHEM1-MrgX2 are adherent rat cell lines (Millipore, Billerica, Mass. 01821, USA) with were cultures under standard cell culture conditions.

human MrgX2 = target: T1, human MrgX2; test: Fluo8 assay, intracellular Calcium release in CHEM1-MrgX2 cells; assay type: cell-based
Procedure: as §1, with “minutes.” for “minutes. For fluorescence readout and compound testing a FLIPR tetra system was used according to the manufactures protocol (Molecular Devices, Calif. 94089-1136, USA).”

human MrgX2 (human) = human MrgX2 (human) (UniProt Q96LB1); test: cell-based or functional assay
CXCR4 = target: T2, CXCR4 (Homo sapiens, UniProt P61073); test: CXCR4 activity assay (CRE-luciferase reporter); assay type: cell-based; settings: result in words
T2 construct: expressed in transfected cells
Description: The CXCR4 receptor is a chemokine receptor and belongs to the family of G protein coupled receptors (GPCRs). Its only known endogenous ligand is stromal cell-derived factor 1 (SDF-1a). CXCR4 is a Gi coupled receptor. Its activation leads to a decrease of intracellular cAMP, which could be monitored by recombinant cAMP-responsive element (CRE) regulated luciferase expression. For the characterization of modulators of CXCR4 activity, stable cell lines expressing recombinant CXCR4 and a CRE-luciferase reporter vector were established. The cells were incubated with forskolin at a concentration of 0.5 μM, SDF-1a (at 20 nM) and test compounds and incubated for 4 h under standard cell culture conditions. Luciferase substrate was added and the luminescence was measured for 60 seconds.

T2 sequence (P61073 whole entry, species assumed): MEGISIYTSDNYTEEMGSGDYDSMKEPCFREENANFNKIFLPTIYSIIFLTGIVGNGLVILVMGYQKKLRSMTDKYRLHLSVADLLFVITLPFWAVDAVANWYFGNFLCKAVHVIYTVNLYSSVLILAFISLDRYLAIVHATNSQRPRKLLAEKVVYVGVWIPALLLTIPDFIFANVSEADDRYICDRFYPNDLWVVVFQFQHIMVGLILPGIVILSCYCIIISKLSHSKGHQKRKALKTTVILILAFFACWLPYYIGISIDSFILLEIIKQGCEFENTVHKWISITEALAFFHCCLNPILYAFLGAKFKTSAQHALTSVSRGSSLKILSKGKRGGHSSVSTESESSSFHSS

Molecule	Calcium release on CHEM1 without MrgX2 (CHEM1 cells)	Calcium release / activity on MrgX2 (CHEM1-MrgX2) (human MrgX2; Fluo8 assay, result in words)	other results
CC(C)C[C@H](NC(=O)[C@H](C)NC(=O)[C@H](Cc1c[nH]c2ccccc12)NC(=O)[C@H](CCCCN)NC(=O)[C@H](CC(N)=O)NC(=O)[C@H](Cc1c[nH]c2ccccc12)NC(=O)[C@H](CCCCN)NC(=O)[C@H](CCCCN)NC(=O)[C@H](CCCNC(=N)N)NC(=O)[C@H](Cc1ccccc1)NC(=O)[C@H](CCC(=O)O)NC(=O)[C@H](CO)NC(=O)[C@H](C)NC(=O)[C@@H](NC(=O)[C@H](CC(=O)O)NC(=O)[C@H](CC(C)C)NC(=O)[C@H](CCCNC(=N)N)NC(=O)[C@H](C)N)C(C)C)C(=O)N[C@@H](CO)C(=O)N[C@@H](CCCNC(=N)N)C(N)=O [PAMP, reference compound] (H-ARLDVASEFRKKWNKWALSR-NH2)	not in CHEM1	dose dependent Calcium release	–
NPY: peptide analyzed to characterize the specificity of CXCL14 to MrgX2 activation [reference compound]	Neither NPY or angiotension II nor galanin show a dose dependent Calcium release	Neither NPY or angiotension II nor galanin show a dose dependent Calcium release	–
PAMP (from UniProt P35318 22-185) (peptide)	–	–	EC50 of calcium release (Fluo8 assay) on CHEM1-MrgX2 cells (human MrgX2 (human)): 0.49 µM
angiotensin II (DRVYIHPF) [reference compound]	Neither NPY or angiotension II nor galanin show a dose dependent Calcium release	Neither NPY or angiotension II nor galanin show a dose dependent Calcium release	–
human CXCL14 (from UniProt O95715 35-111) (ligand)	–	–	EC50 of intracellular calcium release (Fluo8 assay) on CHEM1-MrgX2 cells (human MrgX2 (human)): 0.57 µM
B1	no significant calcium release	activated by CXCL14 in a dose dependent matter; also recorded: specific agonist	EC50 (human MrgX2; Calcium release, Fluo8 assay, CHEM1 overexpressing MrgX2): 0.57 µM; activity on G-protein coupled receptor CXCR4 (CXCR4): antagonist
B2	not on CHEM1 without MrgX2	dose dependent Calcium release	EC50 on CHEM1-MrgX2 compared with human CXCL14 (human MrgX2; Calcium release, result in words): comparable EC50
